Assay results published in article PMC5750214.

Legend:
[1] = target: β-arrestin-2-RLuc, P32121; test: BRET; details: chain shown with the change, HEK293A cells, read off a plot
[2] = target: β-arrestin-2-RLuc, P32121; test: BRET; details: chain shown with the change, HEK293A cells, read off a plot; remark: listed apart in the source
[125I]-Angiotensin II = competitive radioligand binding assay; details: chain shown with the change, value read from the curve at the x tick, read off a plot
[3] = target: β-arrestin-2-RLuc, P32121; test: BRET; details: chain shown with the change, HEK293A cells, read off a plot; remark: listed apart in the source
[4] = CTL (no stimulation), parent: est. 0.624
[5] = Hcy (100 μM), parent: est. 0.632
[6] = Ang II (1 μM), parent: est. 0.672
[7] = no stimulation (open bar, labelled WT in the key), parent: est. 0.624

β-arrestin-2-RLuc, P32121, sequence (P32121 whole entry): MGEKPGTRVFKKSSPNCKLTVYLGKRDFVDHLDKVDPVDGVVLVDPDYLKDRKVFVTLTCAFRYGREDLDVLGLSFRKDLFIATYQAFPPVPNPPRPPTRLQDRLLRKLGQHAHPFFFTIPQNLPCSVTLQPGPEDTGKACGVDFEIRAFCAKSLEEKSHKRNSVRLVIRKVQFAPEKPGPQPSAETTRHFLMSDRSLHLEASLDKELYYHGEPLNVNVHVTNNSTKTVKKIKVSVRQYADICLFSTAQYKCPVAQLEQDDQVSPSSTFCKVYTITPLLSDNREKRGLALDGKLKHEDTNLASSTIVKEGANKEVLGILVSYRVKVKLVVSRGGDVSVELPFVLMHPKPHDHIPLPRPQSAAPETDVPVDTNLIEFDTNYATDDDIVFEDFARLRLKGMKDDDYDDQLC

response [1, 4]	response [1, 5]	response [2, 6]	response [2, 4]	also measured	Binder
0.621 Δ net BRET	0.62 Δ net BRET	0.657 Δ net BRET	0.621 Δ net BRET	–	AT1-YFP (wild type), P30556 R167N (protein) MILNSSTEDGIKRIQDDCPKAGRHNYIFVMIPTLYSIIFVVGIFGNSLVVIVIYFYMKLKTVASVFLLNLALADLCFLLTLPLWAVYTAMEYRWPFGNYLCKIASASVSFNLYASVFLLTCLSIDRYLAIVHPMKSRLRRTMLVAKVTCIIIWLLAGLASLPAIIHNNVFFIENTNITVCAFHYESQNSTLPIGLGLTKNILGFLFPFLIILTSYTLIWKALKKAYEIQKNKPRNDDIFKIIMAIVLFFFFSWIPHQIFTFLDVLIQLGIIRDCRIADIVDTAMPITICIAYFNNCLNPLFYGFLGKKFKRYFLQLLKYIPPKAKSHSNLSTKMSTLSYRPSDNVSSSTKKPAPCFEVE
–	–	–	–	response (% specific binding) ([125I]-Angiotensin II; competing Hcy at log [Hcy] (M) = -2, parent: est. 33): 31; response (% specific binding) ([125I]-Angiotensin II; competing Hcy at log [Hcy] (M) = -4, parent: est. 46): 76; response (% specific binding) ([125I]-Angiotensin II; competing Hcy at log [Hcy] (M) = -6, parent: est. 97): 100	human angiotensin II type 1 (AT1) receptor, P30556 C289S (protein) MILNSSTEDGIKRIQDDCPKAGRHNYIFVMIPTLYSIIFVVGIFGNSLVVIVIYFYMKLKTVASVFLLNLALADLCFLLTLPLWAVYTAMEYRWPFGNYLCKIASASVSFNLYASVFLLTCLSIDRYLAIVHPMKSRLRRTMLVAKVTCIIIWLLAGLASLPAIIHRNVFFIENTNITVCAFHYESQNSTLPIGLGLTKNILGFLFPFLIILTSYTLIWKALKKAYEIQKNKPRNDDIFKIIMAIVLFFFFSWIPHQIFTFLDVLIQLGIIRDCRIADIVDTAMPITISIAYFNNCLNPLFYGFLGKKFKRYFLQLLKYIPPKAKSHSNLSTKMSTLSYRPSDNVSSSTKKPAPCFEVE
0.626 Δ net BRET	0.622 Δ net BRET	0.628 Δ net BRET	0.629 Δ net BRET	–	AT1-YFP (wild type), P30556 R167A (protein) MILNSSTEDGIKRIQDDCPKAGRHNYIFVMIPTLYSIIFVVGIFGNSLVVIVIYFYMKLKTVASVFLLNLALADLCFLLTLPLWAVYTAMEYRWPFGNYLCKIASASVSFNLYASVFLLTCLSIDRYLAIVHPMKSRLRRTMLVAKVTCIIIWLLAGLASLPAIIHANVFFIENTNITVCAFHYESQNSTLPIGLGLTKNILGFLFPFLIILTSYTLIWKALKKAYEIQKNKPRNDDIFKIIMAIVLFFFFSWIPHQIFTFLDVLIQLGIIRDCRIADIVDTAMPITICIAYFNNCLNPLFYGFLGKKFKRYFLQLLKYIPPKAKSHSNLSTKMSTLSYRPSDNVSSSTKKPAPCFEVE
–	–	–	–	response (% specific binding) ([125I]-Angiotensin II; competing Hcy at log [Hcy] (M) = -2, parent: est. 34): 34; response (% specific binding) ([125I]-Angiotensin II; competing Hcy at log [Hcy] (M) = -4, parent: est. 45): 66; response (% specific binding) ([125I]-Angiotensin II; competing Hcy at log [Hcy] (M) = -6, parent: est. 98): 100	human angiotensin II type 1 (AT1) receptor, P30556 R167A (protein) MILNSSTEDGIKRIQDDCPKAGRHNYIFVMIPTLYSIIFVVGIFGNSLVVIVIYFYMKLKTVASVFLLNLALADLCFLLTLPLWAVYTAMEYRWPFGNYLCKIASASVSFNLYASVFLLTCLSIDRYLAIVHPMKSRLRRTMLVAKVTCIIIWLLAGLASLPAIIHANVFFIENTNITVCAFHYESQNSTLPIGLGLTKNILGFLFPFLIILTSYTLIWKALKKAYEIQKNKPRNDDIFKIIMAIVLFFFFSWIPHQIFTFLDVLIQLGIIRDCRIADIVDTAMPITICIAYFNNCLNPLFYGFLGKKFKRYFLQLLKYIPPKAKSHSNLSTKMSTLSYRPSDNVSSSTKKPAPCFEVE
0.619 Δ net BRET	0.618 Δ net BRET	0.621 Δ net BRET	0.618 Δ net BRET	–	AT1-YFP (wild type), P30556 R167K (protein) MILNSSTEDGIKRIQDDCPKAGRHNYIFVMIPTLYSIIFVVGIFGNSLVVIVIYFYMKLKTVASVFLLNLALADLCFLLTLPLWAVYTAMEYRWPFGNYLCKIASASVSFNLYASVFLLTCLSIDRYLAIVHPMKSRLRRTMLVAKVTCIIIWLLAGLASLPAIIHKNVFFIENTNITVCAFHYESQNSTLPIGLGLTKNILGFLFPFLIILTSYTLIWKALKKAYEIQKNKPRNDDIFKIIMAIVLFFFFSWIPHQIFTFLDVLIQLGIIRDCRIADIVDTAMPITICIAYFNNCLNPLFYGFLGKKFKRYFLQLLKYIPPKAKSHSNLSTKMSTLSYRPSDNVSSSTKKPAPCFEVE
–	–	–	–	response [1, 6]: 0.69 Δ net BRET; response [1, 7]: 0.624 Δ net BRET; response [3, 5]: 0.623 Δ net BRET; response [3, 7]: 0.623 Δ net BRET	AT1-YFP (wild type), P30556 C289S (protein) MILNSSTEDGIKRIQDDCPKAGRHNYIFVMIPTLYSIIFVVGIFGNSLVVIVIYFYMKLKTVASVFLLNLALADLCFLLTLPLWAVYTAMEYRWPFGNYLCKIASASVSFNLYASVFLLTCLSIDRYLAIVHPMKSRLRRTMLVAKVTCIIIWLLAGLASLPAIIHRNVFFIENTNITVCAFHYESQNSTLPIGLGLTKNILGFLFPFLIILTSYTLIWKALKKAYEIQKNKPRNDDIFKIIMAIVLFFFFSWIPHQIFTFLDVLIQLGIIRDCRIADIVDTAMPITISIAYFNNCLNPLFYGFLGKKFKRYFLQLLKYIPPKAKSHSNLSTKMSTLSYRPSDNVSSSTKKPAPCFEVE
